Data taken from US20160185837A1 (Medimmune Limited, priority 2013, published 2016).

Key:
Type in all cases: cell-based
[1] = target: T1, mouse GLP-1 receptor (mGLP-1r) (Mus musculus, UniProt O35659); assay: BSA-cAMP assay, cells expressing mouse GLP-1 receptor; conditions: Batch 1; BSA-cAMP assay; read-out: mGLP1r cAMP activity EC50
T1 construct: expressed in transfected cells; host or cells: HEK293s or CHO cells
T1 sequence (O35659 22-463): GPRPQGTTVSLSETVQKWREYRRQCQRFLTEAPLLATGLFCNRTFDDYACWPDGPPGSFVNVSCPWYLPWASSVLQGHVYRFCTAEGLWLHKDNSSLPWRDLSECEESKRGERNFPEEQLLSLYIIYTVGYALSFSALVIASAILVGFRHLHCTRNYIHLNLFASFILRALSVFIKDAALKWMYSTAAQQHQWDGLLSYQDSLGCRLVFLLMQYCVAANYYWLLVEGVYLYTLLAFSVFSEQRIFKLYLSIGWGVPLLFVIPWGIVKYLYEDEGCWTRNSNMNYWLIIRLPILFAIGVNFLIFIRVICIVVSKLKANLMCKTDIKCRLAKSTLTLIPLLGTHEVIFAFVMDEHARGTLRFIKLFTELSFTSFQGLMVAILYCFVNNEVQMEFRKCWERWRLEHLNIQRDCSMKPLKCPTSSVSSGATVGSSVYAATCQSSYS
Protocol: (§1) One basic cAMP assays was performed, differing in the medium used for the assay, the “BSA-cAMP assay”:
(§2) BSA-based assay medium: 0.1% bovine serum albumin (BSA) in
(§3) In certain aspects, the assay can also be carried out in medium supplemented with serum albumin that corresponds to the receptor being tested, e.g., human serum albumin for testing cAMP activity at hGIPr or hGLP-1r, rat serum albumin for testing cAMP activity at rGIPr or rGLP-1r, and so on. […] All sample dilutions were made in duplicate.
(§4) A frozen cryo-vial of cells expressing the receptor of interest was thawed rapidly in a water-bath, transferred to pre-warmed assay media and spun at 240×g for 5 minutes. Cells were re-suspended in assay buffer at an optimized concentration (e.g., hGLP-1r and hGIPr cells at 0.5×10^5 cells/ml).
(§5) To this, 5 μL cell suspension was added and the plates incubated at room temperature for 30 minutes.
(§6) cAMP levels were measured using a commercially available cAMP dynamic 2 HTRF kit (Cisbio, Cat #62AM4PEJ), following the two step protocol as per manufacturer's recommendations. In brief; anti-cAMP cryptate (donor fluorophore) and cAMP-d2 (acceptor fluorophore) were made up separately by diluting each 1/20 in conjugate & lysis buffer provided in the kit. 5 μL anti-cAMP cryptate was added to all wells of the assay plate, and 5 μL cAMP-d2 added to all wells except non-specific binding (NSB) wells, to which conjugate and lysis buffer was added. […] Data was transformed to % Delta F as described in manufacturer's guidelines and then transformed to percent activation of maximal native agonist response and analysed by 4-parameter logistic fit to determine EC50 values.
(§7) We used unconstrained 4 parameter logistic fit of data, curve mid-point to determine EC50. This was tested on two occasions, not two batches.
(§8) In order to be able to carry out in vivo studies in rodents, IP088 was tested for potency against the mouse receptors mGIPr and mGLP-1r as well as the rat receptors rGIPr and rGLP-1r, using cells expressing the respective receptors in the cAMP assay described above.

[2] = target: T2, mouse GIP receptor (mGIPr) (Mus musculus, UniProt Q0P543); assay: BSA-cAMP assay, cells expressing mouse GIP receptor; conditions: Batch 1; BSA-cAMP assay; read-out: mGIPr cAMP activity EC50
T2 construct: expressed in transfected cells; host or cells: HEK293s or CHO cells
T2 sequence (Q0P543 19-460): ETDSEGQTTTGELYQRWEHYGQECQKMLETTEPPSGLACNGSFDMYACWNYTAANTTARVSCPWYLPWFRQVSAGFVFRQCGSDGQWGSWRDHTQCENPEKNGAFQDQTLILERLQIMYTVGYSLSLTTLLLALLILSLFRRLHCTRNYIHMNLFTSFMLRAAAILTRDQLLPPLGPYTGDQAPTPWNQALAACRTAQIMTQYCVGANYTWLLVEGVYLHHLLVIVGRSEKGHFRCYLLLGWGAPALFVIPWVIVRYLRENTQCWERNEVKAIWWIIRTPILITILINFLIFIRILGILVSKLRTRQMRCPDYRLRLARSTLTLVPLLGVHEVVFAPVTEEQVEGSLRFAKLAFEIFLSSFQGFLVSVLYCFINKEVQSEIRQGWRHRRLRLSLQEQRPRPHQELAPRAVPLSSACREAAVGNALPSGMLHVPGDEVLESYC
Protocol: as §1, §2, §3, §4, §5, §6, §7, §8

[3] = target: T3, human GIP receptor (hGIPr) (Homo sapiens, UniProt P48546); assay: BSA-cAMP assay, cells expressing human GIP receptor; conditions: Batch 1; BSA-cAMP assay; read-out: hGIPr cAMP activity EC50
T3 construct: expressed in transfected cells
T3 sequence (P48546 22-466): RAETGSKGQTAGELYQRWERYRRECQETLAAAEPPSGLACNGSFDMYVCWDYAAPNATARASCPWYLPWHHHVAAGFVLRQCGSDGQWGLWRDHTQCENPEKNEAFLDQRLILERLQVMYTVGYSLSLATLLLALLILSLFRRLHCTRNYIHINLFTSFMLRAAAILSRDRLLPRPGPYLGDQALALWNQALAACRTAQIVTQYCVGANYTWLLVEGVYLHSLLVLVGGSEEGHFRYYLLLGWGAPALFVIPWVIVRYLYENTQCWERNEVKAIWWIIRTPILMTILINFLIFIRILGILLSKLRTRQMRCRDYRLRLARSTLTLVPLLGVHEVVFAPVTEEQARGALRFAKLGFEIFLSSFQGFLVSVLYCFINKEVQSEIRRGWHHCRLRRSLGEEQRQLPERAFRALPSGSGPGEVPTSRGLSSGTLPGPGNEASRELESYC
Protocol: For human GIPr, two different lines were used, shown as “hGIPr” and “hGIPr (C3)” in Table 11.
as §1, §2, §3, §4, §5, §6, §7

[4] = target: T4, human glucagon receptor (GCGr) (Homo sapiens, UniProt P47871); assay: BSA-cAMP assay, cells expressing human glucagon receptor; conditions: Batch 1, read-out: hGCGr cAMP activity EC50
T4 construct: expressed in transfected cells; host or cells: HEK293s or CHO cells
T4 sequence (P47871 26-477): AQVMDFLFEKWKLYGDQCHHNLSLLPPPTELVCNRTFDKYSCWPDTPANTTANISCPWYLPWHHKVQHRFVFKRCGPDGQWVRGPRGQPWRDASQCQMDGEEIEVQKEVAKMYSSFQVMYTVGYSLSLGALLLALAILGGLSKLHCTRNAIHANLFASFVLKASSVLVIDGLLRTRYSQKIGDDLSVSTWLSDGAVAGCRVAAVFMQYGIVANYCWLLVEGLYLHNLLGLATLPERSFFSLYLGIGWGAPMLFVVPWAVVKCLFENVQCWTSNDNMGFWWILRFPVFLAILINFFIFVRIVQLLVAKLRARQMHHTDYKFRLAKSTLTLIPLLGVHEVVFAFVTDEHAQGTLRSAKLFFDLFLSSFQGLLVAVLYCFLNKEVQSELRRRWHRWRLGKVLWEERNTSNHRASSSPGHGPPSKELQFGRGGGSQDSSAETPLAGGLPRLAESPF
Protocol: as §1, §2, §3, §4, §5, §6, §7

[5] = target: T5, rat GIP receptor (rGIPr) (Rattus norvegicus, UniProt P43219); assay: BSA-cAMP assay, cells expressing rat GIP receptor; conditions: Batch 1; BSA-cAMP assay; read-out: rGIPr cAMP activity EC50
T5 construct: expressed in transfected cells; host or cells: HEK293s or CHO cells
T5 sequence (P43219 19-455): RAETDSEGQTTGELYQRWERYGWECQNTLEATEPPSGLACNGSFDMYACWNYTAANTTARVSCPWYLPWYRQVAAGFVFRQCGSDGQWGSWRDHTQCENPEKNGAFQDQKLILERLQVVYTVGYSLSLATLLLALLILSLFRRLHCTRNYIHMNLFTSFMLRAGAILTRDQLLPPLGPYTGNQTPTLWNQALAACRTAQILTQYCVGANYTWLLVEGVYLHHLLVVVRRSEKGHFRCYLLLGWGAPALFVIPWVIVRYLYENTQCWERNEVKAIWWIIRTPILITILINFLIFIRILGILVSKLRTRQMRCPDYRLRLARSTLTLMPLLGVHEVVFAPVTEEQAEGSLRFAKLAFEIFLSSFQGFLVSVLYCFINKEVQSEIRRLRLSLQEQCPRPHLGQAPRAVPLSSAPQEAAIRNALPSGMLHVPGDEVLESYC
Protocol: as §1, §2, §3, §4, §5, §6, §7, §8

[6] = target: T6, rat GLP-1 receptor (rGLP-1r) (Rattus norvegicus, UniProt P32301); assay: BSA-cAMP assay, cells expressing rat GLP-1 receptor; conditions: Batch 1; BSA-cAMP assay; read-out: rGLP1r cAMP activity EC50
T6 construct: expressed in transfected cells; host or cells: HEK293s or CHO cells
T6 sequence (P32301 22-463): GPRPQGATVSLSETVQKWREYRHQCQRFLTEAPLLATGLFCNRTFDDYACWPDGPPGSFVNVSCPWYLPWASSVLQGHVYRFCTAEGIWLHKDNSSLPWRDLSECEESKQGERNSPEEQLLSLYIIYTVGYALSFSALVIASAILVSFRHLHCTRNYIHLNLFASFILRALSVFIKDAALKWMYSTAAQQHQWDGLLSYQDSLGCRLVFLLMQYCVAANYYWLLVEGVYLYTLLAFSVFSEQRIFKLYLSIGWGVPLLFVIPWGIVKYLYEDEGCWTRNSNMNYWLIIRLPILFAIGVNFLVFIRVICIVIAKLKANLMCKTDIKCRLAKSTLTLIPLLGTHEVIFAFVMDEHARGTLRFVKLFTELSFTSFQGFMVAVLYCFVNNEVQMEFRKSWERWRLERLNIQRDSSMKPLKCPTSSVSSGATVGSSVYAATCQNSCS
Protocol: as §1, §2, §3, §4, §5, §6, §7, §8

[7] = target: T7, human GLP-1 receptor (hGLP-1r) (Homo sapiens, UniProt P43220); assay: BSA-cAMP assay, cells expressing human GLP-1 receptor; conditions: Batch 1; BSA-cAMP assay; read-out: hGLP1r cAMP activity EC50
T7 construct: expressed in transfected cells
T7 sequence (P43220 24-463): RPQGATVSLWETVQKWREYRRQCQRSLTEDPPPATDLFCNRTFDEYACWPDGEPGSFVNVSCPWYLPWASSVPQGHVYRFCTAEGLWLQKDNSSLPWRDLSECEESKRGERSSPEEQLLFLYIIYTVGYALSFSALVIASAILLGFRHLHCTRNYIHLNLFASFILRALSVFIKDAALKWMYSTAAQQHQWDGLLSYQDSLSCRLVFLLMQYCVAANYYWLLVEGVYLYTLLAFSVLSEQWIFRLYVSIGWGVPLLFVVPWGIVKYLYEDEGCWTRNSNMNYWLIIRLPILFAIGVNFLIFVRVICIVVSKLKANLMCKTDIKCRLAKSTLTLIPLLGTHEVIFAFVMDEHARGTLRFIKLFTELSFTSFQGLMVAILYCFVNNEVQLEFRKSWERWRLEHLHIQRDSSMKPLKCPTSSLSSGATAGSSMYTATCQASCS
Protocol: as §1, §2, §3, §4, §5, §6, §7

EC50 [1] | EC50 [2] | EC50 [3] | EC50 [4] | EC50 [5] | EC50 [6] | EC50 [7] | Substance
> 1130 nM | 3.2 nM | 0.26 nM | ≥ 1100 nM | 1.7 nM | 47 nM | 230 nM | IP305: Fc fusion, IgG1-TM(ΔK), SEQ ID NO:430; agonist peptide YSEGTFISDYSIALAAAAVRDFVNWLLAGG (YSEGTFISDYSIALAAAAVRDFVNWLLAGGGGGGGSGGGGSGGGGSGGGGSATHTCPPC)
> 1520 nM | 0.17 nM | 0.025 nM | ≥ 1500 nM | 0.09 nM | 700 nM | 1300 nM | IP308 (YSEGTFISDYSIALAAAAAKDFVNWLLAGGGGGGGSGGGGSGGGGSGGGGSATHTCPPC)
1500 nM | 0.95 nM | 0.074 nM | > 2420 nM | 0.43 nM | 61 nM | 670 nM | IP311 (YSEGTFISDYSIALAAAAIDDFVNWLLAGGGGGGGSGGGGSGGGGSGGGGSATHTCPPC)
> 906 nM | 15 nM | 0.23 nM | 740 nM | 0.88 nM | 450 nM | > 906 nM | IP314: Fc fusion, IgG1-TM(ΔK), SEQ ID NO:431; agonist peptide YSEGTFISDYSKLLAAAAVRDFVNWLLAGG (YSEGTFISDYSKLLAAAAVRDFVNWLLAGGGGGGGSGGGGSGGGGSGGGGSATHTCPPC)
> 4470 nM | 35 nM | 0.05 nM | ≥ 4500 nM | 14 nM | > 4470 nM | ≥ 4500 nM | IP318: Fc fusion, IgG1-TM(ΔK), SEQ ID NO:432; agonist peptide YSEGTFISDYSIAMDEEAVRDFVEWLKAGG (YSEGTFISDYSIAMDEEAVRDFVEWLKAGGGGGGGSGGGGSGGGGSGGGGSATHTCPPC)
> 2740 nM | 0.02 nM | 0.0058 nM | 280 nM | 0.0067 nM | > 2740 nM | > 5480 nM | IP335 (YSEGTFISDYSIAMDKIHQQDFVNWLLAQKGGGGGSGGGGSGGGGSGGGGSA)
670 nM | 43 nM | 4.7 nM | > 3560 nM | 5.1 nM | 23 nM | 75 nM | IP342 (YSEGTFTSDYSAAAEAAAAAAFAAWLAAAAGGGGGSGGGGSGGGGSGGGGSACPPC)
> 2070 nM | 880 nM | 72 nM | > 2070 nM | 110 nM | 360 nM | 960 nM | IP343 (YSEGTFTSDYAAAAERQAIDAFAAWLAAAAGGGGGSGGGGSGGGGSGGGGSA)
0.2 nM | 8.3 nM | 0.011 nM | 43 nM | 0.039 nM | 0.04 nM | 0.061 nM | IP359: Fc fusion, IgG1-TM, SEQ ID NO:366; agonist peptide YSEGTFTSDYSKLLEEEAVRLFIEHLLAGG (YSEGTFTSDYSKLLEEEAVRLFIEHLLAGGGGGGSGGGGSGGGGSGGGGSATHTCPPC)
> 4860 nM | 1.3 nM | 0.2 nM | > 4860 nM | 0.22 nM | 370 nM | 230 nM | IP368 (YSEGTFTSDYRQAIDRQAIDEFIAWLLKGGGGGGGSGGGGSGGGGSGGGGSACPPC)
1.2 nM | 6.6 nM | 0.0084 nM | 25 nM | 0.06 nM | 0.031 nM | 0.11 nM | IP380: Fc fusion, IgG1-fusion, SEQ ID NO:376; agonist peptide YSEGTFTSDYSKLLEEEAVRLFIEFLLAGG (YSEGTFTSDYSKLLEEEAVRLFIEFLLAGGGGGGSGGGGSGGGGSGGGGSATHTCPPC)
0.73 nM | 5.4 nM | 0.0099 nM | 18 nM | 0.045 nM | 0.027 nM | 0.091 nM | IP381: Fc fusion, IgG1-fusion, SEQ ID NO:377; agonist peptide YSEGTFTSDYSKLLEEEAVRLFIEYLLAGG (YSEGTFTSDYSKLLEEEAVRLFIEYLLAGGGGGGSGGGGSGGGGSGGGGSATHTCPPC)
30 nM | 18 nM | 0.012 nM | > 1560 nM | 1.1 nM | 0.16 nM | 0.47 nM | IP385 (YSEGTFTSDYSIYLDRQAIDEFIAWLLKGGGGGGGSGGGGSGGGGSGGGGSACPPC)
